This data set deals with the molecule itself. As to the kind of experiment: crystal structure; T. thermophilus 70S ribosome 4.4 uM with mRNA MOO4b (2'-O-methylated A-site codon) and tRNAfMet, YoeB added to 44 uM, buffer G (5 mM HEPES pH 7.5, 50 mM KCl, 10 mM NH4Cl, 10 mM Mg-acetate, 6 mM 2-mercaptoethanol); pre-cleavage state, 3.35 A.

This note sets out measurements from paper PMC3814384, “YoeB–ribosome structure: a canonical RNase that requires the ribosome for its specific activity” (Nucleic Acids Research, 2013).

B1: Escherichia coli YoeB (enzyme, UniProt P69348 1-84, looked up)
chain: MKLIWSEESWDDYLYWQETDKRIVKKINELIKDTRRTPFEGKGKPEPLKHNLSGFWSRRITEEHRLVYAVTDDSLLIAACRYHY
notes: In the crystal two copies (monomers A and B) sit on the ribosomal A site as a homodimer; also called YeoB; monomer A; source: E. coli BL21(DE3), co-expressed with His-tagged YefM
The term stoichiometry N denotes the number of molecules, sites or subunits per partner or assembly. In the case of B1, the “stoichiometry N” value was 2.
